According to publication PMC6343008:

Target: Globin E1 of the South American lungfish Lepidosiren paradoxa, recombinant (Lepidosiren paradoxa)

Globin E1 of the South American lungfish Lepidosiren paradoxa, recombinant (natural protein)
cooperativity (n) of the O2 equilibrium curve, pH 7.2, 20 °C: 1.19
